Reference: PMC5030187 (Biochemistry, 2016)

Target: the molecule itself
Assay: crystal structure

B1: Ag(I)-bound periplasmic sensor domain of E. coli histidine kinase CusS, CusS(39-187) (domain or fragment, UniProt P77485 39-187, looked up)
chain: VKVHFAEQDINDLKEISATLERVLNHPDETQARRLMTLEDIVSGYSNVLISLADSQGKTVYHSPGAPDIREFTRDAIPDKDAQGGEVYLLSGPTMMMPGHGHGHMEHSNWRMINLPVGPLVDGKPIYTLYIALSIDFHLHYINDLMNKL
  stoichiometry N: 2
